Data from PMC6931119.

Target: microtubules (human (endogenous in HEK293T)) (UniProt P68363)
Assay: co-sedimentation; microtubule co-sedimentation assay of HEK293T cells with overexpressed Climp63-HA and GFP or GFP-Calu1; 37°C; P pellet = microtubule fraction, S supernatant = free tubulin fraction

Climp63-HA, sequence (Q07065 whole entry): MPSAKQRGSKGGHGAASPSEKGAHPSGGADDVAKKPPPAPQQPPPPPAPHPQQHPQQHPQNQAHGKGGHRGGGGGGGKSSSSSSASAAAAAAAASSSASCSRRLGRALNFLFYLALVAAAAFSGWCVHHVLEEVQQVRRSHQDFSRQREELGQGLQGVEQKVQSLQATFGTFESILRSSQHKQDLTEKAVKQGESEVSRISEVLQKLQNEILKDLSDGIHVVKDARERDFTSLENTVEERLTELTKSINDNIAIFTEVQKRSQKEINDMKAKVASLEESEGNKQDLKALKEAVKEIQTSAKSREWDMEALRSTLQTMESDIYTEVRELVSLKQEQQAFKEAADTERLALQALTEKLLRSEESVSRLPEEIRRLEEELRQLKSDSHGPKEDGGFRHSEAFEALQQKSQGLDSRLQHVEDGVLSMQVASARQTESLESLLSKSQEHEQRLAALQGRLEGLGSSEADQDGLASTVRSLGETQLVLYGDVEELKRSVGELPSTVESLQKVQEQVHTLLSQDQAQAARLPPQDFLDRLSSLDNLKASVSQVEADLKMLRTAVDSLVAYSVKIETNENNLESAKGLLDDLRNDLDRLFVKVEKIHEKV
UniProt P68363, sequence (P68363 whole entry, chain 1 of 2): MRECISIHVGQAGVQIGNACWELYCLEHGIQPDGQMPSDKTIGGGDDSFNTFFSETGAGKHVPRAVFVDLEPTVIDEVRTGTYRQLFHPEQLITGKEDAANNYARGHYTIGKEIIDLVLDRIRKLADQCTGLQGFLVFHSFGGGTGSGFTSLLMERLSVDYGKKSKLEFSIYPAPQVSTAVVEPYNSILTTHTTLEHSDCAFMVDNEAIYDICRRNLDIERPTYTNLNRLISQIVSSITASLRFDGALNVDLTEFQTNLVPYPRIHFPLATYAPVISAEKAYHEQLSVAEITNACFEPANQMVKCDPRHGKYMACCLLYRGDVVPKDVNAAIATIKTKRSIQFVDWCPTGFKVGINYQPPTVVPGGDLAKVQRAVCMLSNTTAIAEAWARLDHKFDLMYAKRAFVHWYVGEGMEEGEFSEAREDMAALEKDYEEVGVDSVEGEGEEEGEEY
UniProt P68363, sequence (P07437 whole entry, chain 2 of 2, further chain): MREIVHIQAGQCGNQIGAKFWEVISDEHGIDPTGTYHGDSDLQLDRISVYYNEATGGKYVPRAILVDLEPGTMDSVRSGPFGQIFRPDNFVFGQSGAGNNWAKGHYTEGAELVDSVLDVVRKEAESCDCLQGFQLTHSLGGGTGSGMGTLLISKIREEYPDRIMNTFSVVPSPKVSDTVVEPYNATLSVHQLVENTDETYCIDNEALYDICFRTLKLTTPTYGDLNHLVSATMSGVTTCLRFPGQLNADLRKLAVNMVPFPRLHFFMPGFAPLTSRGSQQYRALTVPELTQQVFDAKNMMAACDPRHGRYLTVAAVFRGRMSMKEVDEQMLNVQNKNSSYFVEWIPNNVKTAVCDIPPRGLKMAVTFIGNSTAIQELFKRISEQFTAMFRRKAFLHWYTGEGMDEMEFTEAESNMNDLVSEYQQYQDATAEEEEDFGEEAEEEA

percent of Climp63 in the pellet (microtubule fraction) at 37°C, GFP overexpressed: 60% | percent of Climp63 in the pellet (microtubule fraction) at 37°C, GFP-Calu1 overexpressed: 36%
Substance: Climp63-HA (from UniProt Q07065 1-602) (natural protein)
